US11896644B2, “Inhibition of beta-arrestin oligomerization in tauopathy” (UNIVERSITY OF SOUTH FLORIDA, priority 2020, dated 2024)

Columns and labels:
tau in Hela-V5-tau cells = test: Tau immunocytochemistry in Hela-V5-tau cells expressing YFP-β-arrestin2 mutants; format: cell-based
Excerpt: (§1) FIGS. 11A to 11E show β-arrestin2 oligomerization mutants reduce tau aggregates. FIG. 11A contains representative confocal images of total tau in Hela-V5-tau cells transfected with YFP, YFP-β-arrestin2 ΔIP6C, or YFP-β-arrestin2 ΔIP6N (Scale bar=10 μm). FIG. 11B contains representative confocal images of proximity ligation assay (PLA) in Hela-V5-tau cells transfected with β-arrestin2-flag and β-arrestin2-myc with YFP control, YFP-β-arrestin2 ΔIP6C, or YFP-β-arrestin2 ΔIP6N.
Cells were fixed with 4% paraformaldehyde for 15 min at room temperature and washed with 0.2% triton in TBS and blocked using 3% BSA with 0.1% triton x-100 for 1 hr, incubated with primary antibodies for overnight at 4° C. and fluorescently labeled secondary antibodies for 45 min at room temperature. For immunohistochemistry, mice were perfused with PBS and fixed with 4% paraformaldehyde. […] Images were captured with the Olympus FV10i confocal microscope (Tokyo, Japan), and the immunoreactivities were quantified using the Image J software (National Institutes of Health, Bethesda, MD). Immunoreactivities were quantitated from every 12th serial section through an entire hippocampus. […] Regions of interest were chosen randomly, and investigators were blinded to experimental conditions during image acquisition and quantification. […]

tau aggregates = test: Filter-trap assay for tau aggregates from Hela-V5-tau cells; format: cell-based; details: vs control vector
Excerpt: as §1
When DIV 18 tau P301S cortical primary neurons were transduced with either β-arrestin2 ΔIP6C or ΔIP6N lentivirus, an approximately 50% reduction in tau compared to control was evident (FIGS. 4A,4B), which represents a key finding relevant to both mechanism of action and potential therapeutic strategies. […] Also investigated was whether β-arrestin2 oligomerization is required for slowing tau turnover by disrupting oligomerization using these mutants in several models. […] To determine whether β-arrestin2 oligomerization status alters tau aggregation itself, filter-trap assays were performed from Hela-V5-tau cells transfected with β-arrestin2 variants, in which tau aggregates from detergent-soluble and-insoluble lysates were captured by cellulose acetate membranes and assessed by immunoblotting.

B1: β-arrestin2 ΔIP6N: β-arrestin2 N-terminal domain mutant (K158A, K161A, and R162A), incapable of forming oligomers; dominant negative (protein, UniProt P32121 1-409, looked up, variant K158A K161A R162A)
Beta-arrestin-2: MGEKPGTRVFKKSSPNCKLTVYLGKRDFVDHLDKVDPVDGVVLVDPDYLKDRKVFVTLTCAFRYGREDLDVLGLSFRKDLFIATYQAFPPVPNPPRPPTRLQDRLLRKLGQHAHPFFFTIPQNLPCSVTLQPGPEDTGKACGVDFEIRAFCAKSLEEASHAANSVRLVIRKVQFAPEKPGPQPSAETTRHFLMSDRSLHLEASLDKELYYHGEPLNVNVHVTNNSTKTVKKIKVSVRQYADICLFSTAQYKCPVAQLEQDDQVSPSSTFCKVYTITPLLSDNREKRGLALDGKLKHEDTNLASSTIVKEGANKEVLGILVSYRVKVKLVVSRGGDVSVELPFVLMHPKPHDHIPLPRPQSAAPETDVPVDTNLIEFDTNYATDDDIVFEDFARLRLKGMKDDDYDDQLC
modifications: GFP or YFP tag
notes: dominant negative
tau by immunocytochemistry (tau in Hela-V5-tau cells): significant reductions
tau aggregates in detergent-insoluble lysates (filter-trap) (tau aggregates): significantly reduced tau aggregates
